Reference: patent publication US20250043302A1, “MUTATED HYDROXYPHENYLPYRUVATE DIOXYGENASE POLYPEPTIDE, AND CODING GENE AND USE THEREOF” (BEIJING DABEINONG BIOTECHNOLOGY CO., LTD., priority 2021, published 2025)
Where a chain is given by its changes, count along the chain named. Numbers in names are those of the source.

B1: NtHPPD-02: nucleotide sequence encoding wild-type Nicotiana tabacum HPPD; vector DBN11750 (nucleic acid)
DNA: ATGGGGAAGCTGGAAACCGTCACTACCACCTCGGCGGCGGCTGCTGATGATTCATCGGAATTAACAACCAACTTCAAGTTGGTTGGTTTCAAAAATTTCATCAGAACAAACCCAAGGTCTGATTTCTTCTCCGTCAAGAGCTTCCACCACATTGAATTCTGGTGCGGTGACGCAACTAACACAGCGCGCCGCTTCTCATGGAGCCTAGGGATGCCAATTGCAGCTAAGAGTGATCTTTCAACAGGAAACAGCGTGCACGCCTCCTACCTCCTCCGGCCCGTAAGCGGTTCTTTACAGTTCCTGTTTACAGCACCATATTCACCTTCTATTTCGACTCCTAGTTCAGCTGCAATCCCATCTTTTTCCACATCTACACATAGGTCTTTCACTACAACACATGGACTGGGTGTTCGTGCCGTCGCCCTCGAGGTGGAGAATGCTTATACTGCCTTCAGTGCTTCTGTCTCCAGAGGCGCCAAGCCAATGTTTGAACCTGTGACAATTGATGAACAAGTAGCAATGGCTGAGGTTCATTTGTACGGCGATGTTGTGCTGCGATTTGTTTCTTATCTCAAGGACGCCGACAACCTGGTCTTCCTGCCGGGGTTTGAGGCCATGGATGAAACTGCTAGTTACAAAGAACTTGATTATGGAATACGGCGTTTGGATCATGCTGTGGGCAATGTTCCAGAACTCGGCCCGGTAGTTGATTACATCAAGAGGTTTACTGGATTTCATGAATTTGCAGAGTTTACCGCTGAAGATGTGGGAACTGCGGAAAGTGGGCTAAACTCCATGGTTCTTGCGAACAATGATGAGACTGTGCTCCTCCCTCTGAATGAGCCTGTTTATGGCACCAAAAGAAAATCTCAGATACAAACATATCTTGAGCATAATGAAGGAGCTGGGGTGCAGCACCTTGCTCTTGTTACTGAAGACATCTTTAAGACTTTGACAGAGATGAGGAAGAGAAGTGGAGTTGGAGGTTTTGAGTTCATGCCTTCCCCCCCGCCGACCTACTACAAGAATTTGAAGAACAGGGCTGGTGACGTCCTCTCAGACGAGCAGATTTTGGCTTGTGAGGAGCTTGGCATCTTGGTAGACCGGGACGACCAGGGGACGCTTCTCCAAATTTTCACAAAACCCGTCGGGGACCGCCCCACCATATTTATTGAGATCATCCAGAGGATAGGCTGCATGCTTAAAGATGGAAAAGGTCAAGTGTACCAGAAGGGTGGTTGTGGTGGGTTTGGCAAAGGAAATTTTTCTGAGCTGTTCAGAAGCATAGAAGAATATGAGAAGACACTGGAAGCAAAACAAGCAAATCAAGTTGCGGCCGCGTGA
modifications: NtHPPD-02 Nucleotide Sequence
notes: vector DBN11750
B2: NtHPPDm-F372A-F383W-02: nucleotide sequence encoding Nicotiana tabacum HPPD with F372A+F383W; vector DBN11753 (nucleic acid)
DNA: B1 DNA with T1135G, T1136C, T1169G, T1170G
modifications: NtHPPDm-F372A-F383W-02 Nucleotide Sequence
notes: vector DBN11753

Key:
Assay type in all cases: in vivo
[1] = test system: Arabidopsis thaliana T1 plants; experiment: Mesotrione tolerance of transgenic Arabidopsis thaliana T1 plants (spray, bleached leaf area grade, damage score); set-up: Scores: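 damage score 0-100 computed as Σ(N×S)/(T×M)×100 over grades 0-3 with higher meaning more damage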; conditions: Arabidopsis thaliana T1 plants; for Grade 0 (classification and statistics of the grade of pesticide damage; number of plants) / Grade 1 (classification and statistics of the grade of pesticide damage; number of plants) / Grade 2 (classification and statistics of the grade of pesticide damage; number of plants) / Grade 3 (classification and statistics of the grade of pesticide damage; number of plants): 16 plants
How it was run: (§1)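 Damage graded 0–3 from the proportion of bleached leaf area 7 days after spraying. Plants were glufosinate-selected T1 lines, 18 days after sowing, plus vector and wild-type controls. Rates: mesotrione 52.5–420, isoxaflutole 35–280, topramezone 25–200 g ai/ha, with water (0×).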

[2] = test system: Arabidopsis thaliana T1 plants; experiment: Isoxaflutole tolerance of transgenic Arabidopsis thaliana T1 plants (spray, bleached leaf area grade, damage score); set-up: Scores (pesticide damage): scale not given here; conditions: spray, Arabidopsis thaliana T1 plants; for Classification and statistics of the grade of pesticide damage: Grade 0 (number of plants) / Classification and statistics of the grade of pesticide damage: Grade 1 (number of plants) / Classification and statistics of the grade of pesticide damage: Grade 2 (number of plants) / Classification and statistics of the grade of pesticide damage: Grade 3 (number of plants): 16 plants
How it was run: as §1

[3] = test system: Arabidopsis thaliana T1 plants; experiment: Topramezone tolerance of transgenic Arabidopsis thaliana T1 plants (spray, bleached leaf area grade, damage score); conditions: 7 DAT, Table 4; for Classification and statistics of the grade of pesticide damage: Grade 0 / Classification and statistics of the grade of pesticide damage: Grade 1 / Classification and statistics of the grade of pesticide damage: Grade 2 / Classification and statistics of the grade of pesticide damage: Grade 3: number of plants; for Scores: pesticide damage score 0-100
How it was run: as §1

[4] = isoxaflutole 35 g ai/ha (0.5x field concentration)
[5] = isoxaflutole 70 g ai/ha (1x field concentration)

Molecule | Resistance evaluation ([1]; mesotrione 52.5 g ai/ha) | Scores ([1]; mesotrione 52.5 g ai/ha) | Grade 0 (classification and statistics of the grade of pesticide damage; number of plants) ([1]; mesotrione 52.5 g ai/ha) | Grade 1 (classification and statistics of the grade of pesticide damage; number of plants) ([1]; mesotrione 52.5 g ai/ha) | Grade 2 (classification and statistics of the grade of pesticide damage; number of plants) ([1]; mesotrione 52.5 g ai/ha) | Grade 3 (classification and statistics of the grade of pesticide damage; number of plants) ([1]; mesotrione 52.5 g ai/ha) | Resistance evaluation ([1]; mesotrione 105 g ai/ha) | Scores ([1]; mesotrione 105 g ai/ha) | Grade 0 (classification and statistics of the grade of pesticide damage; number of plants) ([1]; mesotrione 105 g ai/ha) | Grade 1 (classification and statistics of the grade of pesticide damage; number of plants) ([1]; mesotrione 105 g ai/ha) | Grade 2 (classification and statistics of the grade of pesticide damage; number of plants) ([1]; mesotrione 105 g ai/ha) | Grade 3 (classification and statistics of the grade of pesticide damage; number of plants) ([1]; mesotrione 105 g ai/ha) | Resistance evaluation [2, 4] | Scores (pesticide damage) [2, 4] | Classification and statistics of the grade of pesticide damage: Grade 0 (number of plants) [2, 4] | Classification and statistics of the grade of pesticide damage: Grade 1 (number of plants) [2, 4] | Classification and statistics of the grade of pesticide damage: Grade 2 (number of plants) [2, 4] | Classification and statistics of the grade of pesticide damage: Grade 3 (number of plants) [2, 4] | Resistance evaluation [2, 5] | Scores (pesticide damage) [2, 5] | also measured
B1 | Non-resistant | 100 | 0 | 0 | 0 | 16 | Non-resistant | 100 | 0 | 0 | 0 | 16 | Non-resistant | 100 | 0 | 0 | 0 | 16 | Non-resistant | 100 | Classification and statistics of the grade of pesticide damage: Grade 0 (number of plants) [2, 5]: 0; Classification and statistics of the grade of pesticide damage: Grade 1 (number of plants) [2, 5]: 0; Classification and statistics of the grade of pesticide damage: Grade 2 (number of plants) [2, 5]: 0; Classification and statistics of the grade of pesticide damage: Grade 3 (number of plants) [2, 5]: 16; Classification and statistics of the grade of pesticide damage: Grade 0 ([3]; topramezone 25 g ai/ha (1×)): 0; Classification and statistics of the grade of pesticide damage: Grade 1 ([3]; topramezone 25 g ai/ha (1×)): 0; Classification and statistics of the grade of pesticide damage: Grade 2 ([3]; topramezone 25 g ai/ha (1×)): 0; Classification and statistics of the grade of pesticide damage: Grade 3 ([3]; topramezone 25 g ai/ha (1×)): 16; Classification and statistics of the grade of pesticide damage: Grade 0 ([3]; topramezone 100 g ai/ha (4×)): 0; Classification and statistics of the grade of pesticide damage: Grade 1 ([3]; topramezone 100 g ai/ha (4×)): 0; Classification and statistics of the grade of pesticide damage: Grade 2 ([3]; topramezone 100 g ai/ha (4×)): 0; Classification and statistics of the grade of pesticide damage: Grade 3 ([3]; topramezone 100 g ai/ha (4×)): 16; Scores ([3]; topramezone 25 g ai/ha (1×)): 100; Scores ([3]; topramezone 100 g ai/ha (4×)): 100; Resistance evaluation ([3]; topramezone 25 g ai/ha (1×)): non-resistant (non-resistant plants (scores 68-100)); Resistance evaluation ([3]; topramezone 100 g ai/ha (4×)): non-resistant (non-resistant plants (scores 68-100))
B2 | Poorly resistant | 35 | 1 | 13 | 2 | 0 | Non-resistant | 69 | 0 | 1 | 13 | 2 | Moderately | 33 | 1 | 14 | 1 | 0 | Poorly | 65 | Classification and statistics of the grade of pesticide damage: Grade 0 (number of plants) [2, 5]: 0; Classification and statistics of the grade of pesticide damage: Grade 1 (number of plants) [2, 5]: 3; Classification and statistics of the grade of pesticide damage: Grade 2 (number of plants) [2, 5]: 11; Classification and statistics of the grade of pesticide damage: Grade 3 (number of plants) [2, 5]: 2; Classification and statistics of the grade of pesticide damage: Grade 0 ([3]; topramezone 25 g ai/ha (1×)): 2; Classification and statistics of the grade of pesticide damage: Grade 1 ([3]; topramezone 25 g ai/ha (1×)): 13; Classification and statistics of the grade of pesticide damage: Grade 2 ([3]; topramezone 25 g ai/ha (1×)): 1; Classification and statistics of the grade of pesticide damage: Grade 3 ([3]; topramezone 25 g ai/ha (1×)): 0; Classification and statistics of the grade of pesticide damage: Grade 0 ([3]; topramezone 100 g ai/ha (4×)): 0; Classification and statistics of the grade of pesticide damage: Grade 1 ([3]; topramezone 100 g ai/ha (4×)): 1; Classification and statistics of the grade of pesticide damage: Grade 2 ([3]; topramezone 100 g ai/ha (4×)): 13; Classification and statistics of the grade of pesticide damage: Grade 3 ([3]; topramezone 100 g ai/ha (4×)): 2; Scores ([3]; topramezone 25 g ai/ha (1×)): 31; Scores ([3]; topramezone 100 g ai/ha (4×)): 69; Resistance evaluation ([3]; topramezone 25 g ai/ha (1×)): moderately; Resistance evaluation ([3]; topramezone 100 g ai/ha (4×)): non-resistant (non-resistant plants (scores 68-100))
